{
  "source": "patent US20250382352A1",
  "about": "(SCG CELL THERAPY PTE, published 2025)",
  "binders": {"B1": {"name": "BsAb2-6 (C8 scFv fused to the C-terminus of the heavy chain of the murine anti-CD3 Ab via a linker) (bispecific antibody)", "chain 1": "not shown", "chain 2": "QAVVTQESALTTSPGETVTLTCRSSTGAVTTSNYANWVQEKPDHLFTGLIGGTNKRAPGVPARFSGSLIGDKAALTITGAQTEDEAIYFCALWYSNLWVFGGGTKLTVLRTVAAPSVFIFPPSDEQLKSGTASVVCLLNNFYPREAKVQWKVDNALQSGNSQESVTEQDSKDSTYSLSSTLTLSKADYEKHKVYACEVTHQGLSSPVTKSFNRGEC"}},
  "key": {"[1]": {"molecular_target": "T1, HBsAg recombinant protein (hepatitis B virus)", "T1 chain": "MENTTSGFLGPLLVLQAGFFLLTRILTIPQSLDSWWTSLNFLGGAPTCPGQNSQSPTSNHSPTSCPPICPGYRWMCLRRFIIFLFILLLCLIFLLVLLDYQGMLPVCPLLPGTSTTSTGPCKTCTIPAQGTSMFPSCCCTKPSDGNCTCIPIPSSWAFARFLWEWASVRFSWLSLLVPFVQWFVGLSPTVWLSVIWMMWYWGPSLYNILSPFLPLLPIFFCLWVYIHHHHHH", "assay": "ELISA, recombinant HBsAg"}, "[2]": {"molecular_target": "T1, HBsAg recombinant protein", "assay": "ELISA, recombinant HBsAg"}, "[3]": {"molecular_target": "T2, human CD3ε recombinant protein (human, UniProt P07766 23-126)", "T2 construct": "also called human CD3E; huCD3ε", "T2 sequence (P07766 23-126 limits assumed)": "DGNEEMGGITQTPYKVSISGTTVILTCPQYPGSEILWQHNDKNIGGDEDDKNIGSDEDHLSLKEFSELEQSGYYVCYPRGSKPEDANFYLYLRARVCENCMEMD", "assay": "ELISA, recombinant human CD3ε"}, "[4]": {"molecular_target": "T2, human CD3ε recombinant protein", "assay": "ELISA, recombinant human CD3ε", "remark": "listed apart in the source"}, "[5]": {"molecular_target": "T3, rhesus CD3ε recombinant protein (rhesus)", "T3 construct": "also called rhesus CD38 [sic]", "assay": "ELISA, recombinant rhesus CD3ε"}, "[6]": {"molecular_target": "T3, rhesus CD3ε recombinant protein", "assay": "ELISA, recombinant rhesus CD3ε", "remark": "listed apart in the source"}},
  "note": "Read-outs that look alike come from different tables or passages of the source.",
  "data": [
    {"binder": "B1", "values": [
      {"measurement": "EC50 (read off the curve)", "setting": "[1]", "result": "~200", "unit": "pM"},
      {"measurement": "EC50 (read off the curve)", "setting": "[2]", "result": "~300", "unit": "pM"},
      {"measurement": "EC50 (read off the curve)", "setting": "[3]", "result": "100 to 200", "unit": "pM"},
      {"measurement": "EC50 (read off the curve)", "setting": "[4]", "result": "~300", "unit": "pM"},
      {"measurement": "EC50 (read off the curve)", "setting": "[5]", "result": "~70", "unit": "pM"},
      {"measurement": "EC50 (read off the curve)", "setting": "[6]", "result": "~70", "unit": "pM"}
    ]}
  ]
}
